In test [1] the target is T1, interaction between PTP HSCF and PSTPIP (Mus musculus, UniProt P97814).
T1 construct: made in house; host or cells: GST fusion: E. coli DH5-alpha; PSTPIP: in vitro transcription/translation in rabbit reticulocyte lysate (Promega TnT)
T1 sequence (P97814 1-415): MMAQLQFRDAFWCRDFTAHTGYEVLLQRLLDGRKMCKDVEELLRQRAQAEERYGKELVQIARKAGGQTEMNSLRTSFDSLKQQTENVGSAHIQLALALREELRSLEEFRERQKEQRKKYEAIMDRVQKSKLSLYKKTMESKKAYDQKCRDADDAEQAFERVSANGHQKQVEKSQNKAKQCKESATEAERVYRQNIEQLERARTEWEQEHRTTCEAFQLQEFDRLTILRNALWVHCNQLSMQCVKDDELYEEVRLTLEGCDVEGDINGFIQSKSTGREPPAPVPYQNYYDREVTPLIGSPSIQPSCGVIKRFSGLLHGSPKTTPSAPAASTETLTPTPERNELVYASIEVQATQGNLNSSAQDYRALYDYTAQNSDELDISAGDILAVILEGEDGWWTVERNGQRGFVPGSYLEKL
Particulars: previous studies (Spencer et al. 1997); cited from earlier work.

Test [2] deals with T2, PSTPIP (Mus musculus, UniProt P97814).
T2 construct: containing the full-length cDNA for PSTPIP (amino acids 2-415) was subcloned into pGEX4T-2; made in house; host or cells: E. coli DH5-alpha
T2 sequence (P97814 2-415): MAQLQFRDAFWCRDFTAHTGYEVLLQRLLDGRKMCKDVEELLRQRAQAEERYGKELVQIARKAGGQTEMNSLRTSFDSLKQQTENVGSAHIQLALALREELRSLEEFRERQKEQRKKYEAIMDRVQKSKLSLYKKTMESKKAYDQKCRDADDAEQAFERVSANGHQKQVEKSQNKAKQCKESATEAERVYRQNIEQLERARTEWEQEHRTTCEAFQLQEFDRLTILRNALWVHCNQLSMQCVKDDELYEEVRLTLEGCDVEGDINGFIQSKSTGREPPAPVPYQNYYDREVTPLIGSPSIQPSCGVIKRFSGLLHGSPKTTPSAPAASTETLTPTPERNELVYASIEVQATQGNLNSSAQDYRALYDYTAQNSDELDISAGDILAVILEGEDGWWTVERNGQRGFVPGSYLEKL
In words: In vitro GST pull-down binding of PTP HSCF forms to GST PSTPIP. The arrangement: species or system murine. To be noted: 1 or 10 μg/ml GST PST PIP. How it is done: The binding was carried out according to the method of Wong and Johnson (Wong et al., J. Biol. Chem. 271(35):20981-20984 (1996)). Briefly, 1 μg of plasmid with either the PSTPIP protein or PTP HSCF under the control of the Sp6 promoter was in vitro transcribed/translated using the Promega™ TnT Rabbit Reticulocyte™ system. Samples were diluted in 50 mM HEPES, pH 7.2, 1% triton X 100, 10% glycerol, 100 mM NaCl, 5 mM EDTA and 2 μg/ml each of leupeptin, pepstatin, aprotinin, and PMSF. […] This was reacted for 1 hour at 4° C. and then the resin washed 6 times in HEPES/Triton binding buffer before SDS gel electrophoresis. The peptides were synthesized on an automated Milligen 9050 Peptide Synthesizer using standard solid phase chemistry with FMOC protected amino acids on a p-alkoxybenzyl alcohol resin. Dried peptides were re-suspended in the HEPES/Triton Binding buffer at a concentration of 10 mg/ml. Peptide inhibition was performed by adding the peptide first to the in vitro translation product and then the GST-fusion followed by the GSH-Sepharose. […]
In vitro binding analyses between various PTP HSCF and PST PIP constructs were performed as previously described (Spencer et al, (1997), supra). […] Samples were than reacted with GST fusion proteins at various concentrations, and the bound proteins were centrifuged using glutathione-sepharose beads and analyzed on SDS polyacrylamide gels. […]

The subject of test [3] is PST PIP - PTP HSCF association. The experiment in a line: Coprecipitation of PST PIP and PTP HSCF from co-transfected COS cells. In kind it is cell-based. How it is done:
COS-7 cells were transfected by electroporation. Briefly, 1.5×10^6 COS-7 cells were mixed with 24 μg total DNA in PBS and electroporated at 960 μF, […] (Bio-Rad™ Gene Pulsar™). Following electroporation, cells were seeded in 10 cm dishes and incubated for 3 days. 10-cm dishes of transfected COS cells were washed twice with ice-cold PBS, and lysed in 1 ml of M-RIPA (50 mM Tris 7.4, 1% NP40, 0.25% DOC, 150 mM NaCl, 1 mM sodium ortho-vanadate, 1 mM NaF plus Complete™ Protease Inhibitors (Boehringer Mannheim)). Lysates were incubated for 15 minutes with 100 μl UltraLink Immobilized Protein A/G™ (Pierce) at 4° C., followed by centrifugation for 5 minutes. Supernatants were collected and stored at −70° C. or directly immunoprecipitated. 5 μg of M2 or 12CA5 was added to 500 μl of lysate and incubated overnight at 4° C. Ultralink Protein A/G™ was added and incubation continued for 2 hours at 4° C. The immune complexes were washed 3 times with M-RIPA. The proteins were subjected to SDS-PAGE and transferred to nitrocellulose in 1X Transfer Buffer™ (Novex). Immunoblots were blocked overnight at 4° C. in 3% milk/PBS. To detect Flag-tagged PIP, blots were incubated with 10 μg/ml Bio-M2 (Biotinylated anti-FLAG monoclonal Ab, KODAK) followed by incubation in 10 μg/ml streptavidin-HRP (UBI). To detect HA-tagged PTPhscf, blots were incubated in anti-(HA)-peroxidase (Boehringer Mannheim) as per manufacturer's instructions. To detect phosphotyrosine, blots were incubated in HRP-conjugated 4G10 (anti-phosphotyrosine monoclonal, UBI) as per manufacture's instructions.
In vitro binding analyses between various PTP HSCF and PST PIP constructs were performed as previously described (Spencer et al, (1997), supra). Briefly, plasmids were transcribed and translated in vitro using the TnT Rabbit Reticulocyte Lysate System (Promega). Samples were diluted in 50 mM HEPES, pH 7.2, 1% triton X-100, 10% glycerol, 100 mM NaCl, and 2 μg/ml each of leupeptin, pepstatin, aprotinin and PMSF (lysis buffer). Samples were than reacted with GST fusion proteins at various concentrations, and the bound proteins were centrifuged using glutathione-sepharose beads and analyzed on SDS polyacrylamide gels. C-terminally-derived peptide inhibition studies were performed by incubating the GST fusion protein binding reactions in the presence of 10 μg/ml of the indicated peptides. Peptides were produced by FMOC-protected amino acids as previously described (Spencer et al, (1997), supra). In vivo interactions between various forms of PTP HSCF and PST PIP were also performed as previously described (Spencer et al, (1997), supra). Briefly, COS cells were transfected with various constructs, and after 48 hours, lysates were prepared and immunoprecipitated with antibodies to either the FLAG epitope contained at the C-terminus of PST PIP or an HA epitope contained at the N-terminus of PTP HSCF. The resultant blots were probed with anti-FLAG to detect PST PIP, anti-HA to detect PTP HSCF or anti-phosphotyrosine to detect levels of this modified amino acid in each protein.

Like-named read-outs stand apart in the source and are kept apart here.

Regarding GFGNRCGKPKGPRDPPSEWT [PXXP-PEST], the “blocking of the PTP HSCF-PST PIP interaction by C-terminal peptides of related PTPs” value in test [1] is listed as “effectively block the interaction”.

Take GFGNRFSKPKGPRNPPSAW [PXXP-PEP]: in test [1], the “blocking of the PTP HSCF-PST PIP interaction by C-terminal peptides of related PTPs” value is “effectively block the interaction”.

B1: R444+W450: PTP HSCF double mutant with R444 and W450 mutated to alanine (protein)
chain: MSRHTDLVRSFLEQLEARDYREGAILAREFSDIKARSVAWKSEGVCSTKAGSRLGNTNKNRYKDVVAYDETRVILSLLQEEGHGDYINANFIRGIDGSQAYIATQGPLPHTLLDFWRLVWEFGVKVILMACQETENGRRKCERYWAREQEPLKAGPFCITLTKETTLNADITLRTLQVTFQKEFRSVHQLQYMSWPDHGVPSSSDHILTMVEEARCLQGLGPGPLCVHCSAGCGRTGVLCAVDYVRQLLLTQTIPPNFSLFQVVLEMRKQRPAAVQTEEQYRFLYHTVAQLFSRTLQDTSPHYQNLKENCAPICKEAFSLRTSSALPATSRPPGGVLRSISVPAPPTLPMADTYAVVQKRGASAGTGPGPRAPTSTDTPIYSQVAPRAQRPVAHTEDAQGTTALRRVPADQNSSGPDAYEEVTDGAQTGGLGFNLRIGRPKGPADPPAEATRV
modifications: left off: small tags and cut ends
notes: PTP HSCF double mutant with R444 and W450 mutated to alanine
In the case of B1, the “binding of in vitro translated PTP HSCF forms to GST PSTPIP” value in test [2] is given as “stronger inhibitory effect on binding to PST PIP”. The “in vivo association (coprecipitation) of PST PIP and PTP HSCF” value in test [3] is recorded as “as poor at interacting in vivo with PST PIP as the mutant which was missing the entire C-terminal proline rich domain”; in test [3] (listed as PTP HSCF444+450) it was “complete loss of coprecipitation”.

Values taken from patent publication US6887705B1, “Tyrosine phosphorylated cleavage furrow-associated proteins (PSTPIPs)” (Genentech, Inc., priority 1997, dated 2005).
